Article PMC4560413, “Ethyl Pyruvate Emerges as a Safe and Fast Acting Agent against Trypanosoma brucei by Targeting Pyruvate Kinase Activity” (PLoS ONE, 2015)

Test system: C=C(OP(=O)(O)O)C(=O)O
Assay: purified protein
Settings: Mg2+

Sequence of pyruvate kinase (PK-1 from rabbit muscle) (Oryctolagus cuniculus) (chain, as listed by the source): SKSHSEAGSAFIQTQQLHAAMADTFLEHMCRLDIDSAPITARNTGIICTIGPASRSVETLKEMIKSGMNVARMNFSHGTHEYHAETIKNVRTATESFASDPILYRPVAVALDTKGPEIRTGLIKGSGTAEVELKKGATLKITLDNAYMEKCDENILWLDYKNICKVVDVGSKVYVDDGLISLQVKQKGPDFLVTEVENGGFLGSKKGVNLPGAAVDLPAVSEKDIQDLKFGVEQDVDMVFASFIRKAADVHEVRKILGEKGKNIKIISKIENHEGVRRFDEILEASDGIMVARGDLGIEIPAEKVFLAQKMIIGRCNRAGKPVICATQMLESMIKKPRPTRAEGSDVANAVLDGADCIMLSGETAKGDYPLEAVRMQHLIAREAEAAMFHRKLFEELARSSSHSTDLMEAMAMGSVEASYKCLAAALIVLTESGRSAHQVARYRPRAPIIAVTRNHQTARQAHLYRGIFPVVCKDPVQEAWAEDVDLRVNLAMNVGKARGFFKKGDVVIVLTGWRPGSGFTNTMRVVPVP

With “pyruvate kinase (PK-1 from rabbit muscle) (Oryctolagus cuniculus)” the Km was 220 ± 20 µM.
